Results taken from paper PMC4605309.
Where two headings read alike, the source gives them in different places.

How the values were obtained:
Smad5 MH1 [1] = target: T1, Smad5 MH1 (Mus musculus, UniProt P97454 1-143); assay: EMSA
Smad5 MH1 [2] = target: T1, Smad5 MH1; assay: EMSA; remark: listed apart in the source

T1 sequence (P97454 1-143): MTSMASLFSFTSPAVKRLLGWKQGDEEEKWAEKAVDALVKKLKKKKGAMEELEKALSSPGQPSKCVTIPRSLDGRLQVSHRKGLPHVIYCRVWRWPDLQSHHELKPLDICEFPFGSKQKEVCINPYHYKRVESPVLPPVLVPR

B1: Id2 promoter DNA (dsDNA)
DNA 1: CCTGGCGCCAGAGAGTCTGC
DNA 2: GCAGACTCTCTGGCGCCAGG
binding result (Smad5 MH1 [1]): binds

B2: Bambi enhancer DNA (dsDNA)
DNA 1: AGTGTCGTCTCGTTGGCGCCGGGTGC
DNA 2: GCACCCGGCGCCAACGAGACGACACT
binding result (Smad5 MH1 [2]): binds

B3: Smad7 promoter DNA (dsDNA)
DNA 1: CCAGCCAGCCAGCCGGCGCCAC
DNA 2: GTGGCGCCGGCTGGCTGGCTGG
binding result (Smad5 MH1 [2]): binds
